# Laboratory results as given in US12630600B2 (MEDIMMUNE LIMITED, priority 2022, dated 2026).
# Starred links: 1 amine or outer side, 2 acyl side, 3 side chain; linkers in the order of their positions; H or OH if unused. Non-standard residues stand in square brackets, D forms with d. Groups on a side chain read outwards from the residue. No end group written: not given here. *: point of attachment. C20 diacid = O=C(O)CCCCCCCCCCCCCCCCCCC(=O)*; C18 diacid = O=C(O)CCCCCCCCCCCCCCCCC(=O)*; γGlu = O=C(O)[C@H](CCC(=O)[*:2])N[*:1]; αMeF = C[C@](N)(Cc1ccccc1)C(=O)O; AEEA = NCCOCCOCC(=O)O; Aib = CC(C)(N)C(=O)O
# B1: Peptide 21 (peptide)
# peptide: H[Aib]HGS[αMeF]TSDVSK[αMeF]LDSK([γGlu-C18 diacid])AAQD[αMeF]VESIANT-NH2
# modifications: N-terminus assumed
# SMILES: CC[C@H](C)[C@H](NC(=O)[C@H](CO)NC(=O)[C@H](CCC(=O)O)NC(=O)[C@@H](NC(=O)[C@](C)(Cc1ccccc1)NC(=O)[C@H](CC(=O)O)NC(=O)[C@H](CCC(N)=O)NC(=O)[C@H](C)NC(=O)[C@H](C)NC(=O)[C@H](CCCCNC(=O)CC[C@H](NC(=O)CCCCCCCCCCCCCCCCC(=O)O)C(=O)O)NC(=O)[C@H](CO)NC(=O)[C@H](CC(=O)O)NC(=O)[C@H](CC(C)C)NC(=O)[C@](C)(Cc1ccccc1)NC(=O)[C@H](CCCCN)NC(=O)[C@H](CO)NC(=O)[C@@H](NC(=O)[C@H](CC(=O)O)NC(=O)[C@H](CO)NC(=O)[C@@H](NC(=O)[C@](C)(Cc1ccccc1)NC(=O)[C@H](CO)NC(=O)CNC(=O)[C@H](Cc1c[nH]cn1)NC(=O)C(C)(C)NC(=O)[C@@H](N)Cc1c[nH]cn1)[C@@H](C)O)C(C)C)C(C)C)C(=O)N[C@@H](C)C(=O)N[C@@H](CC(N)=O)C(=O)N[C@H](C(N)=O)[C@@H](C)O
# B2: Peptide 2 (peptide)
# peptide: HSQGS[αMeF]TSDVSK[αMeF]LDSK([AEEA-AEEA-γGlu-C20 diacid])AAQD[αMeF]VQWIANT-NH2
# modifications: N-terminus assumed
# SMILES: CC[C@H](C)[C@H](NC(=O)[C@H](Cc1c[nH]c2ccccc12)NC(=O)[C@H](CCC(N)=O)NC(=O)[C@@H](NC(=O)[C@](C)(Cc1ccccc1)NC(=O)[C@H](CC(=O)O)NC(=O)[C@H](CCC(N)=O)NC(=O)[C@H](C)NC(=O)[C@H](C)NC(=O)[C@H](CCCCNC(=O)COCCOCCNC(=O)COCCOCCNC(=O)CC[C@H](NC(=O)CCCCCCCCCCCCCCCCCCC(=O)O)C(=O)O)NC(=O)[C@H](CO)NC(=O)[C@H](CC(=O)O)NC(=O)[C@H](CC(C)C)NC(=O)[C@](C)(Cc1ccccc1)NC(=O)[C@H](CCCCN)NC(=O)[C@H](CO)NC(=O)[C@@H](NC(=O)[C@H](CC(=O)O)NC(=O)[C@H](CO)NC(=O)[C@@H](NC(=O)[C@](C)(Cc1ccccc1)NC(=O)[C@H](CO)NC(=O)CNC(=O)[C@H](CCC(N)=O)NC(=O)[C@H](CO)NC(=O)[C@@H](N)Cc1c[nH]cn1)[C@@H](C)O)C(C)C)C(C)C)C(=O)N[C@@H](C)C(=O)N[C@@H](CC(N)=O)C(=O)N[C@H](C(N)=O)[C@@H](C)O
# B3: Peptide 22 (peptide)
# peptide: H[Aib]HGS[αMeF]TSDVSK[αMeF]LDSK([AEEA-AEEA-γGlu-γGlu-C20 diacid])AAQD[αMeF]VESIANT-NH2
# modifications: N-terminus assumed
# SMILES: CC[C@H](C)[C@H](NC(=O)[C@H](CO)NC(=O)[C@H](CCC(=O)O)NC(=O)[C@@H](NC(=O)[C@](C)(Cc1ccccc1)NC(=O)[C@H](CC(=O)O)NC(=O)[C@H](CCC(N)=O)NC(=O)[C@H](C)NC(=O)[C@H](C)NC(=O)[C@H](CCCCNC(=O)COCCOCCNC(=O)COCCOCCNC(=O)CC[C@H](NC(=O)CC[C@H](NC(=O)CCCCCCCCCCCCCCCCCCC(=O)O)C(=O)O)C(=O)O)NC(=O)[C@H](CO)NC(=O)[C@H](CC(=O)O)NC(=O)[C@H](CC(C)C)NC(=O)[C@](C)(Cc1ccccc1)NC(=O)[C@H](CCCCN)NC(=O)[C@H](CO)NC(=O)[C@@H](NC(=O)[C@H](CC(=O)O)NC(=O)[C@H](CO)NC(=O)[C@@H](NC(=O)[C@](C)(Cc1ccccc1)NC(=O)[C@H](CO)NC(=O)CNC(=O)[C@H](Cc1c[nH]cn1)NC(=O)C(C)(C)NC(=O)[C@@H](N)Cc1c[nH]cn1)[C@@H](C)O)C(C)C)C(C)C)C(=O)N[C@@H](C)C(=O)N[C@@H](CC(N)=O)C(=O)N[C@H](C(N)=O)[C@@H](C)O
# B4: Peptide 24 (peptide)
# peptide: H[Aib]HGS[αMeF]TSDVSK[αMeF]LDSK([AEEA-AEEA-γGlu-C18 diacid])AAQD[αMeF]VQ[Aib]IANT-NH2
# modifications: N-terminus assumed
# SMILES: CC[C@H](C)[C@H](NC(=O)C(C)(C)NC(=O)[C@H](CCC(N)=O)NC(=O)[C@@H](NC(=O)[C@](C)(Cc1ccccc1)NC(=O)[C@H](CC(=O)O)NC(=O)[C@H](CCC(N)=O)NC(=O)[C@H](C)NC(=O)[C@H](C)NC(=O)[C@H](CCCCNC(=O)COCCOCCNC(=O)COCCOCCNC(=O)CC[C@H](NC(=O)CCCCCCCCCCCCCCCCC(=O)O)C(=O)O)NC(=O)[C@H](CO)NC(=O)[C@H](CC(=O)O)NC(=O)[C@H](CC(C)C)NC(=O)[C@](C)(Cc1ccccc1)NC(=O)[C@H](CCCCN)NC(=O)[C@H](CO)NC(=O)[C@@H](NC(=O)[C@H](CC(=O)O)NC(=O)[C@H](CO)NC(=O)[C@@H](NC(=O)[C@](C)(Cc1ccccc1)NC(=O)[C@H](CO)NC(=O)CNC(=O)[C@H](Cc1c[nH]cn1)NC(=O)C(C)(C)NC(=O)[C@@H](N)Cc1c[nH]cn1)[C@@H](C)O)C(C)C)C(C)C)C(=O)N[C@@H](C)C(=O)N[C@@H](CC(N)=O)C(=O)N[C@H](C(N)=O)[C@@H](C)O
# B5: Peptide 29 (peptide)
# peptide: H[Aib]QGTFTSDVSK[αMeF]LDSK([AEEA-AEEA-γGlu-C18 diacid])RA[Aib]DFVQWLL[Aib]T-OH
# modifications: N-terminus assumed
# SMILES: CC(C)C[C@H](NC(=O)[C@H](Cc1c[nH]c2ccccc12)NC(=O)[C@H](CCC(N)=O)NC(=O)[C@@H](NC(=O)[C@H](Cc1ccccc1)NC(=O)[C@H](CC(=O)O)NC(=O)C(C)(C)NC(=O)[C@H](C)NC(=O)[C@H](CCCNC(=N)N)NC(=O)[C@H](CCCCNC(=O)COCCOCCNC(=O)COCCOCCNC(=O)CC[C@H](NC(=O)CCCCCCCCCCCCCCCCC(=O)O)C(=O)O)NC(=O)[C@H](CO)NC(=O)[C@H](CC(=O)O)NC(=O)[C@H](CC(C)C)NC(=O)[C@](C)(Cc1ccccc1)NC(=O)[C@H](CCCCN)NC(=O)[C@H](CO)NC(=O)[C@@H](NC(=O)[C@H](CC(=O)O)NC(=O)[C@H](CO)NC(=O)[C@@H](NC(=O)[C@H](Cc1ccccc1)NC(=O)[C@@H](NC(=O)CNC(=O)[C@H](CCC(N)=O)NC(=O)C(C)(C)NC(=O)[C@@H](N)Cc1c[nH]cn1)[C@@H](C)O)[C@@H](C)O)C(C)C)C(C)C)C(=O)N[C@@H](CC(C)C)C(=O)NC(C)(C)C(=O)N[C@H](C(=O)O)[C@@H](C)O
# B6: Peptide 19 (peptide)
# peptide: H[Aib]HGS[αMeF]TSDVSK[αMeF]LDSK([AEEA-AEEA-γGlu-γGlu-C18 diacid])AARD[αMeF]VQ[Aib]IANT-NH2
# modifications: N-terminus assumed
# SMILES: CC[C@H](C)[C@H](NC(=O)C(C)(C)NC(=O)[C@H](CCC(N)=O)NC(=O)[C@@H](NC(=O)[C@](C)(Cc1ccccc1)NC(=O)[C@H](CC(=O)O)NC(=O)[C@H](CCCNC(=N)N)NC(=O)[C@H](C)NC(=O)[C@H](C)NC(=O)[C@H](CCCCNC(=O)COCCOCCNC(=O)COCCOCCNC(=O)CC[C@H](NC(=O)CC[C@H](NC(=O)CCCCCCCCCCCCCCCCC(=O)O)C(=O)O)C(=O)O)NC(=O)[C@H](CO)NC(=O)[C@H](CC(=O)O)NC(=O)[C@H](CC(C)C)NC(=O)[C@](C)(Cc1ccccc1)NC(=O)[C@H](CCCCN)NC(=O)[C@H](CO)NC(=O)[C@@H](NC(=O)[C@H](CC(=O)O)NC(=O)[C@H](CO)NC(=O)[C@@H](NC(=O)[C@](C)(Cc1ccccc1)NC(=O)[C@H](CO)NC(=O)CNC(=O)[C@H](Cc1c[nH]cn1)NC(=O)C(C)(C)NC(=O)[C@@H](N)Cc1c[nH]cn1)[C@@H](C)O)C(C)C)C(C)C)C(=O)N[C@@H](C)C(=O)N[C@@H](CC(N)=O)C(=O)N[C@H](C(N)=O)[C@@H](C)O
# B7: Peptide 23 (peptide)
# peptide: H[Aib]HGS[αMeF]TSDVSK[αMeF]LDSK([AEEA-AEEA-γGlu-C18 diacid])AAQD[αMeF]VESIANT-NH2
# modifications: N-terminus assumed
# SMILES: CC[C@H](C)[C@H](NC(=O)[C@H](CO)NC(=O)[C@H](CCC(=O)O)NC(=O)[C@@H](NC(=O)[C@](C)(Cc1ccccc1)NC(=O)[C@H](CC(=O)O)NC(=O)[C@H](CCC(N)=O)NC(=O)[C@H](C)NC(=O)[C@H](C)NC(=O)[C@H](CCCCNC(=O)COCCOCCNC(=O)COCCOCCNC(=O)CC[C@H](NC(=O)CCCCCCCCCCCCCCCCC(=O)O)C(=O)O)NC(=O)[C@H](CO)NC(=O)[C@H](CC(=O)O)NC(=O)[C@H](CC(C)C)NC(=O)[C@](C)(Cc1ccccc1)NC(=O)[C@H](CCCCN)NC(=O)[C@H](CO)NC(=O)[C@@H](NC(=O)[C@H](CC(=O)O)NC(=O)[C@H](CO)NC(=O)[C@@H](NC(=O)[C@](C)(Cc1ccccc1)NC(=O)[C@H](CO)NC(=O)CNC(=O)[C@H](Cc1c[nH]cn1)NC(=O)C(C)(C)NC(=O)[C@@H](N)Cc1c[nH]cn1)[C@@H](C)O)C(C)C)C(C)C)C(=O)N[C@@H](C)C(=O)N[C@@H](CC(N)=O)C(=O)N[C@H](C(N)=O)[C@@H](C)O
# Target: human GLP-1 receptor (human, UniProt P43220)
# Test: cell-based or functional assay
row,Binder,"cAMP production, hGLP-1R EC50 (pM)"
1,B1,378
2,B2,1280
3,B3,1230
4,B4,82.8
5,B5,107
6,B6,38.3
7,H[Aib]HGS[αMeF]TSDVSK[αMeF]LDSK([AEEA-AEEA-γGlu-γGlu-C20 diacid])AAQD[αMeF]VQ[Aib]IANT-NH2 [Peptide 25],726
8,B7,266

# Target: human glucagon receptor (human, UniProt P47871)
# Test: cell-based or functional assay
row,Binder,"cAMP production, hGluc-R EC50 (pM)"
1,B1,68.8
2,B2,4190
3,B3,2720
4,B4,101
5,B5,629
6,B6,133
7,H[Aib]HGS[αMeF]TSDVSK[αMeF]LDSK([AEEA-AEEA-γGlu-γGlu-C20 diacid])AAQD[αMeF]VQ[Aib]IANT-NH2 [Peptide 25],1310
8,B7,321
